Measured values reported in patent publication US20060039913A1 (Janssen / Centocor, published 2006).
Where “and” joins values, the source holds several entries; their conditions need not be identical. Identical values can stand only once. Each block holds one molecule with its values, some of them ahead of it.

How the values were obtained:
[1] = molecular target: chemokine receptor CCR2 on THP-1 cells (human) (UniProt P41597); assay: radioligand saturation binding on THP-1 cells, one-site binding hyperbola fit; mass concentration as fitted
[2] = molecular target: chemokine receptor CCR2 on THP-1 cells (human) (UniProt P41597); assay: radioligand saturation binding on THP-1 cells, one-site binding hyperbola fit; molar conversion with 150 kDa
[3] = molecular target: chemokine receptor CCR2 on THP-1 cells (human) (UniProt P41597); assay: radioligand saturation binding of 125I MCP-1 to THP-1 cells (CCR2), specific bound cpm, one site binding (hyperbola) fit
[4] = molecular target: T1, recombinant human MCP-1 (monocyte chemoattractant protein 1) (human, UniProt P13500 24-99); assay: cell-based or functional assay
T1 sequence (P13500 24-99 limits assumed): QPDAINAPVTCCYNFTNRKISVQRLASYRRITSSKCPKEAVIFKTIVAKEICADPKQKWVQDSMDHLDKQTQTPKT

human MCP-2 = molecular target: T2, human MCP-2 (human, UniProt P80075 24-99); assay: BIAcore, C775 captured on anti-Fc surface, single ligand concentration
T2 sequence (looked up): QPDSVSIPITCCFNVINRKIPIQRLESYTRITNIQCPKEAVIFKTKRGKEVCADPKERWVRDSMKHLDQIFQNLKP
Description: (§1) Anti-MCP-1 monoclonal antibodies were captured onto a BIAcore CM5 sensor surface (Biacore International, Piscataway, N.J.). A solution containing a mixture of rabbit anti-human Fc specific polyclonal antibodies and rabbit anti-mouse Fc specific polyclonal antibodies was first immobilized onto the sensor surface. After the restabilization of the new baseline, the anti-MCP-1 mAb is passed over the surface.
(§2) Human MCP-1 purchased from R&D Systems (www.rndsystems.com) was reconstituted as proscribed by the vendor. Samples of varying concentrations were prepared using this stock solution. They were then passed over the surface of captured anti-MCP-1 mAb using KINJECT command at a flow rate of […]. Measurements are typically performed at 25° C. Sensor data was analyzed using the BLAevaluation software provided with the instrument.
(§3) Analysis is performed as described above, with the exception only a single concentration is used, typically, a high ligand concentration (100 nM). Chemokines selected for mAb specificity were human forms of MCP-1, MCP-2, Eotaxin-1, Eotaxin-2 (CCL24, MPIF-2, NP_{—}002982) and Eotaxin-3 (CCL26, GenBank Q9Y258). All chemokines were purchased from R&D Systems. Dextran-sulfate (1%) was added to the sample buffer in the final round of assays to reduce non-specific binding, particularly to eotaxin-3.

human Eotaxin-3 (CCL26) = molecular target: T3, human Eotaxin-3 (CCL26) (human, UniProt Q9Y258 24-94); assay: as above
T3 sequence (looked up): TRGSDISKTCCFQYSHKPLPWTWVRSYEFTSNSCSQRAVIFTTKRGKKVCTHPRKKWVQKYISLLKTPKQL
Description: as §1, §2, §3

[5] = molecular target: T4, human Eotaxin-2 (CCL24, MPIF-2) (human, UniProt O00175 27-104, limits assumed); assay: as above
T4 sequence (looked up): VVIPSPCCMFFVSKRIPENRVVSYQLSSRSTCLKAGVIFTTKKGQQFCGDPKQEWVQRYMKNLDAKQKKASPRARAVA
Description: as §1, §2, §3

[6] = molecular target: T1, recombinant human MCP-1 (monocyte …); assay: BIAcore, ratio of binding constants, reference eotaxin
Experimental: as §1, §3
The data for binding of C775 to each of the ligand described was processed to give a binding constant, where measurable. There was no measurable binding of C775 to any of the other MCP-1 homologs or eotaxin homologs. The calculated binding constant of C775 to MCP-1 by this method was 1.0 nM and for eotaxin >5 uM, respectively, for a ligand concentration 100 nM. Therefore, the binding specificity of C775 for MCP-1 as compared to eotaxin is >5000 fold. […]

[7] = molecular target: T5, 125I labeled human MCP-1 (NEX332, Perkin Elmer) (human, UniProt P13500 24-99, 125I label, residue not stated); assay: inhibition of 125I MCP-1 (1 ng/ml) binding to CCR2 on THP-1 cells, filter plate radioligand assay
T5 construct: Bought radio-iodinated MCP-1; also called radiolabeled MCP-1
T5 sequence (P13500 24-99 limits assumed): as the sequence (P13500 24-99 limits assumed) above
Experimental: Negative controls (no inhibition) or total binding was measured in 50 ul of assay buffer with no other additions. Nonspecific binding (background) was measured by adding 50 ul of MCP-1 at a final concentration of […]. Test wells received 50 ul of serial dilutions of mAb. Lastly, 50 ul of ¹²⁵I MCP-1 at a final concentration of 1 ng/ml was added to all wells resulting in a total assay volume of […].
To test the efficacy of anti-MCP-1 mabs, a concentration of 1 ng/ml ¹²⁵I MCP-1 was used. Cells were incubated with 1 ng/ml ¹²⁵I MCP-1 with or without serial dilutions of either the commercial Mab (positive control) or 6 different Mabs generated in Example 2. There is a dose-dependent inhibition of ¹²⁵I MCP-1 binding to the CCR2 receptor with the commercial Mab. A dose-dependent inhibition was also observed with five of the six Centocor-generated Mabs allowing the calculation of an IC50 concentration: C727, C728, C752, C753 and, C775.

[8] = molecular target: T1, recombinant human MCP-1 (monocyte …); assay: BIAcore, C775 captured on anti-Fc surface, MCP-1 in solution, 25 C
Description: as §1, §2

Kd [1]: 0.00896 µg/mL
Kd [2]: 1 nM
BMAX [3]: 15700 cpm
Molecule: 125I labeled human MCP-1 (NEX332, Perkin Elmer) (from UniProt P13500 24-99) (ligand)

IC50 (nM), Ca2+ mobilization in THP-1 cells with 300 ng/ml MCP-1 [4]: 53 nM
IC50 (µg/ml), Ca2+ mobilization in THP-1 cells with 300 ng/ml MCP-1 [4]: 8.01 µg/mL
binding result (human MCP-2): no binding (tested: 100 nM ligand)
binding result (human Eotaxin-3 (CCL26)): no binding (tested: 100 nM ligand)
binding result [5]: no binding (tested: 100 nM ligand)
binding specificity for MCP-1 as compared to eotaxin (fold) [6]: > 5000 fold
IC50 [7]: 7.1 µg/mL and 47 nM
Kd [8]: 1 nM
B1: murine anti-human MCP-1 monoclonal antibody C775 (antibody, mouse IgG1, V domains shown)
VH: QVQLKQSGAELVRPGASVKLSCKASGYTFTDYYINWVKQRPGQGLEWIARIYPGTGNTYYNENFKGKATLTAEKSSSTAYMQLSSLTSEDSAVYFCARSGSTVVGNYYGMDYWGQGTSVTVSS
VL: SIVMTQTPKFLLVSAGDRVSITCKASQSVSNDVAWYQQKPGQSPKLLIYYASNRYTGVPDRFTGSGYGTDFTFTISTVQAEDLAVYFCQQDYSSPWTFGGGTKLEIKR
notes: also called CNTO4874; CNTO 4874
